Measured values taken from article PMC4391858.

Assays:
[1] = cycloheximide chase, Western blot, CHO cells; conditions: glycan lost; control: wild type DLL3
[2] = confocal immunocytochemistry of coexpressed DLL1, CHO cells; conditions: glycan lost; control: wild type DLL3

B1: Delta-like 3 (DLL3): DLL3-S286A,T403V (protein)
parent chain: MVSLQVSPLSQTLILAFLLPQALPAGVFELQIHSFGPGPGLGTPRSPCNARGPCRLFFRVCLKPGVSQEATESLCALGAALSTSVPVYTEHPGESAAALPLPDGLVRVPFRDAWPGTFSLVIETWREQLGEHAGGPAWNLLARVVGRRRLAAGGPWARDVQRTGTWELHFSYRARCEPPAVGAACARLCRSRSAPSRCGPGLRPCTPFPDECEAPSVCRPGCSPEHGYCEEPDECRCLEGWTGPLCTVPVSTSSCLNSRVPGPASTGCLLPGPGPCDGNPCANGGSCSETSGSFECACPRGFYGLRCEVSGVTCADGPCFNGGLCVGGEDPDSAYVCHCPPGFQGSNCEKRVDRCSLQPCQNGGLCLDLGHALRCRCRAGFAGPRCEHDLDDCAGRACANGGTCVEGGGSRRCSCALGFGGRDCRERADPCASRPCAHGGRCYAHFSGLVCACAPGYMGVRCEFAVRPDGADAVPAAPRGLRQADPQRFLLPPALGLLVAAGLAGAALLVIHVRRRGPGQDTGTRLLSGTREPSVHTLPDALNNLRLQDGAGDGPSSSADWNHPEDGDSRSIYVIPAPSIYAREDWLIQVLF
degradation_or_half_life [1]: no change | localisation_or_trafficking, other: cells with DLL1 relocalised outside Golgi [2]: decreases, the intracellular DLL1 staining did not change obviously (10 out of 14 cells
